These results are taken from patent US20250154268A1 (NONA BIOSCIENCES SUZHOU, published 2025).

Test [1] deals with T1, human CD25 (human, UniProt P01589 22-272).
T1 construct: whole, on cells; Always presented on cells; also called huCD25; IL2Rα
T1 sequence (looked up): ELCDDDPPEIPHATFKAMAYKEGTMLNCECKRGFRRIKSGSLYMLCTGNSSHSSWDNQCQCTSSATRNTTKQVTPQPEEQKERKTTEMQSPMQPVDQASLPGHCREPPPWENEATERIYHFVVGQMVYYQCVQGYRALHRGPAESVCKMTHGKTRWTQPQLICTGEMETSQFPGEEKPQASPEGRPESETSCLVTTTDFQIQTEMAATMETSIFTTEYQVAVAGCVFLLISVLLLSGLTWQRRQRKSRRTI
Description: flow cytometry, SU-DHL-1 cells.
Description: (§1) Briefly, the CHOK1-huCD25 cells and HEK293-cynoCD25 cells were digested, the SU-DHL-1 cells, Karpas299 cells, Treg cells and Teff cells were collected, and the cells were resuspended in PBS containing 2% BSA. The cells were adjusted to a cell density of 1×10⁶ cells/mL, respectively. […] The cells were incubated at 4° C. for 1 hour in the dark. After the incubation, the cells were rinsed twice by adding pre-chilled PBS containing 2% BSA at 100 μL/well, and centrifuged at 500 g at 4° C. for 5 minutes, and the supernatant was discarded. […] The cells were washed twice by adding pre-chilled PBS containing 2% BSA at 100 μL/well, and centrifuged at 500 g at 4° C. for 5 minutes, and the supernatant was discarded. Finally, the cells were resuspended in pre-chilled PBS containing 2% BSA at 200 μL/well, and the fluorescence signal values were read using a BD CantoII flow cytometer.

Test [2] concerns the target T1, human CD25. Description: flow cytometry, SU-DHL-1 cells. The source holds these as a separate data set.
Description: as §1
Test [3] addresses T1, human CD25. Nature of the test: flow cytometry, SU-DHL-1 cells. The source holds these as a separate data set.
Description: as §1
Test [4] deals with T1, human CD25. Description: flow cytometry, SU-DHL-1 cells. This is another data set of the same source.
Description: as §1
Test [5] has as its target T1, human CD25. Description: flow cytometry, SU-DHL-1 cells. The source holds these as a separate data set.
Description: as §1
Test [6] concerns the target T1, human CD25. Description: flow cytometry, SU-DHL-1 cells. This is another data set of the same source.
Description: as §1
Test [7] concerns the target T1, human CD25. Nature of the test: flow cytometry, SU-DHL-1 cells. The source holds these as a separate data set.
Description: as §1
The target in test [8] is T1, human CD25. Nature of the test: flow cytometry, SU-DHL-1 cells. The source holds these as a separate data set.
Description: as §1
Test [9] deals with T1, human CD25. Description: flow cytometry, SU-DHL-1 cells. The source holds these as a separate data set.
Description: as §1
Test [10] has as its target T1, human CD25. Nature of the test: flow cytometry, Karpas299 cells.
Description: as §1
For test [11], the target named is T1, human CD25. Nature of the test: flow cytometry, Karpas299 cells. The source holds these as a separate data set.
Description: (§2) This example was intended to study the in-vitro binding activity of H2L2 monoclonal antibodies against human CD25 to human/cynomolgus monkey CD25. […] Briefly, the CHOK1-huCD25 cells and HEK293-cynoCD25 cells were digested, the SU-DHL-1 cells, Karpas299 cells, Treg cells and Teff cells were collected, and the cells were resuspended in PBS containing 2% BSA. The cells were adjusted to a cell density of 1×10⁶ cells/mL, respectively. […] The cells were incubated at 4° C. for 1 hour in the dark. After the incubation, the cells were rinsed twice by adding pre-chilled PBS containing 2% BSA at 100 μL/well, and centrifuged at 500 g at 4° C. for 5 minutes, and the supernatant was discarded. […] The cells were washed twice by adding pre-chilled PBS containing 2% BSA at 100 μL/well, and centrifuged at 500 g at 4° C. for 5 minutes, and the supernatant was discarded. Finally, the cells were resuspended in pre-chilled PBS containing 2% BSA at 200 μL/well, and the fluorescence signal values were read using a BD CantoII flow cytometer.
The target of test [12] is T1, human CD25. Nature of the test: flow cytometry, Karpas299 cells. The source holds these as a separate data set.
Description: as §1
Test [13] deals with T1, human CD25. Description: flow cytometry, Karpas299 cells. The source holds these as a separate data set.
Test [14] has as its target T1, human CD25. Description: flow cytometry, Karpas299 cells. The source holds these as a separate data set.
Test [15] addresses T1, human CD25. Nature of the test: flow cytometry, Karpas299 cells. The source holds these as a separate data set.
Test [16] has as its target T1, human CD25. Description: flow cytometry, Karpas299 cells. The source holds these as a separate data set.
Description: as §2
Test [17] concerns the target T1, human CD25. Nature of the test: flow cytometry, Karpas299 cells. The source holds these as a separate data set.
Description: as §2
In test [18] the target is T1, human CD25. Description: flow cytometry, Karpas299 cells. The source holds these as a separate data set.
Description: as §2
The target of test [19] is T1, human CD25. Description: flow cytometry, CHOK1-huCD25 cells.
Description: as §1
Test [20] addresses T1, human CD25. Nature of the test: flow cytometry, CHOK1-huCD25 cells. This is another data set of the same source.
Description: as §2
For test [21], the target named is T2, cynomolgus monkey CD25 (cynomolgus monkey, UniProt H6WS54 22-272).
T2 construct: whole, on cells; also called cynoCD25
T2 sequence: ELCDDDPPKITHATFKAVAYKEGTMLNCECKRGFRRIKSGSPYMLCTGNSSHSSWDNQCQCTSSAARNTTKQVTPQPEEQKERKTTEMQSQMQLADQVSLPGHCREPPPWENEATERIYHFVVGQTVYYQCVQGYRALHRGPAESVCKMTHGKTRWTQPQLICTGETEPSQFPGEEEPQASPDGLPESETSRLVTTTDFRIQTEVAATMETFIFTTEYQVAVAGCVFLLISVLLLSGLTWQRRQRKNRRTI
Description: flow cytometry, HEK293-cynoCD25 cells.
Description: as §1

The target in test [22] is T2, cynomolgus monkey CD25. Description: flow cytometry, HEK293-cynoCD25 cells. This is another data set of the same source.
Description: as §2
Test [23] addresses T2, cynomolgus monkey CD25. Nature of the test: flow cytometry, HEK293-cynoCD25 cells. This is another data set of the same source.
Description: as §1
Test [24] deals with T2, cynomolgus monkey CD25. Description: flow cytometry, HEK293-cynoCD25 cells. This is another data set of the same source.
Description: as §1
Test [25] addresses T2, cynomolgus monkey CD25. Description: flow cytometry, HEK293-cynoCD25 cells. The source holds these as a separate data set.
Description: as §1
The target of test [26] is T2, cynomolgus monkey CD25. Description: flow cytometry, HEK293-cynoCD25 cells. The source holds these as a separate data set.
Description: as §2

Substitutions are numbered along the chain they refer to. Names and notes keep the numbering of the source. Read-outs that look alike come from different tables or passages of the source.

B1: RG6292 (antibody, human IgG1, kappa, V domains shown)
VH: QVQLVQSGAEVKKPGSSVKVSCKASGGTFSSLAISWVRQAPGQGLEWMGGIIPIFGTANYAQKFQGRVTITADESTSTAYMELSSLRSEDTAVYYCARGGSVSGTLVDFDIWGQGTMVTVSS
VL: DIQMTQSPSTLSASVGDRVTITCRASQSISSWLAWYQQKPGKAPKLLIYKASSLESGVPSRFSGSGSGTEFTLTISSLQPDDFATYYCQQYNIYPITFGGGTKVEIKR
notes: also called PR004639; PR004639AF
Turning to B1, the EC50 in [1] amounted to 1.57 nM; in test [2] it was 1.35 nM; in [3], 3.87 nM; in [4], 1.4 nM; in test [5], 3.87 nM; in test [6], 1.28 nM. Further, the EC50 is 0.95 nM in [7]; 1.28 nM in [8]; 1.29 nM in test [9]; 14.3 nM in [10]; 2.22 nM in test [11]; 30 nM in test [12]. Moreover, the EC50 in [13] turned out to be 5 nM; in [14], 30 nM; in test [15], 5 nM; in test [16] it was 3.41 nM; in test [17], 5 nM; in test [18], 11.8 nM. The EC50 stood at 40 nM in test [19]; 45.8 nM in [20]; 40 nM in test [21]; 6.75 nM in test [22]; 4.33 nM in test [23]; 20.9 nM in test [24]. The EC50 in test [25] and in [26] was 80.8 nM each time. The “Maximum MFI” value is 28000 MFI in test [1]; 32900 MFI in test [3]; 30700 MFI in test [4]; 32900 MFI in [5]; 29700 MFI in test [6]; 20900 MFI in test [10]. Further, the “Maximum MFI” value in test [12] amounted to 11800 MFI; in [13] it was 10100 MFI; in test [14], 11800 MFI; in [15] it was 9560 MFI; in test [19] it was 2660 MFI; in [21], 2660 MFI. The “Maximum MFI” value in test [23] amounted to 125000 MFI; in [24], 89700 MFI; in test [25] it was 8590 MFI.

B2: PR008197 (antibody, human IgG1, kappa, V domains shown)
VH: QVQLQGSGPGLVKPSGTLSLTCAVSPGSISSSNWWNWVRQPPGKGLEWIGEIYHRGSTNYNPSLKSRVTISVDKSKNQFSLKLSSVTAADTAVYYCTHYYYDSSGYYYGYWGQGTLVTVSS
VL: DIVMTQSPLSLPVTPGEPASISCRSSQSLLHRDVYNYVDWYLQKPGQSPQLLIYLGSNRASGVPDRFSGSGSGTDFTLKISRVEAEDVGVYYCLQALQTPLTFGGGTKVEIKR
notes: PTM variant of PR005436 (VH:D26P); human IgG1
B2: the EC50 in test [7] is 1.55 nM; in test [16], 8 nM; in [26], 2.25 nM.

B3: PR006110 (antibody, V domains shown)
VH: QVQLQESGPGLVKPSGTLSLTCAVSGGSISSSNYWSWVRQPPGKGLEWIGEIYHSGSTNYNPSLKSRVTISLDKSKNQFSLKLSSVTAADTAVYYCARDRNYGSGNYPHYYHYYGMDVWGQGTTVTVSS
VL: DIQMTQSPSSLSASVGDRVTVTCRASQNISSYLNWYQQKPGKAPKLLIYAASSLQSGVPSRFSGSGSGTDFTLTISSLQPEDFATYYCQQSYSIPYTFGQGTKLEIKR
notes: Fully human recombinant IgG1, kappa; also called 307B8G6
On to B3, for which the EC50 in [9] was 1.95 nM; in test [18], 1.73 nM.

B4: PR008015 (antibody, human IgG1, kappa, V domains shown)
VH: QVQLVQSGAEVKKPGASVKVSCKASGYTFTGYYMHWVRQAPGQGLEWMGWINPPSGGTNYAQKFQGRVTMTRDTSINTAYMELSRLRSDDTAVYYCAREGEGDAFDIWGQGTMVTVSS
VL: DFQMTQSPSTLSASVGDRVTITCRASQSISSWLAWYQQKPGKAPKLLIYEASSLKSGVPSRFSGSESGTEFTLTISSLQPDDFATYYCHQYMSYSTFGQGTKVEIKR
notes: PTM variant of PR006931 (VH:N54P, S60Y); human IgG1
Consider B4, for which the EC50 was 0.85 nM in test [8] and 20 nM in test [17].

B5: PR005497 (antibody, human IgG1, kappa, V domains shown)
VH: QVQLQQSGPGLVKPSQTLSLTCAISGDSVSNNNAAWNWIRQSPSRGLEWLGRTHYRSDRSKWYNDYAVSVKSRITINSDTFKNQFSLQLNPVTPEDTAVYYCARDWDHDAFDIWGQGTMVTVSS
VL: B4 VL with F2I, S31G, E50K, K55E, S56T, E66G, H89L, M92N, S93G, Q99G
notes: Fully human recombinant IgG1, kappa; also called 245E10F1
B5: the EC50 was 2.4 nM in test [2], 2.81 nM in test [11], 2.73 nM in test [20] and 6.4 nM in test [22].

B6: PR008016 (antibody, human IgG1, kappa, V domains shown)
VH: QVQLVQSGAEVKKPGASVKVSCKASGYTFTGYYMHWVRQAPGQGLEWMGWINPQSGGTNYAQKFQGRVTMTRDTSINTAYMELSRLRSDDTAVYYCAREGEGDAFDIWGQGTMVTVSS
VL: B4 VL
notes: PTM variant of PR006931 (VH:N54Q, S60Y); human IgG1
Regarding B6, the figures for the EC50 in test [6], in test [15] and in [25] were 4.02 nM, 40 nM and 2.25 nM, respectively. Moreover, the “Maximum MFI” value in test [6] was 34500 MFI; in [15] it was 8600 MFI; in test [25] it was 27900 MFI.
